The text below walks through data of publication PMC3828196 (PLoS ONE, 2013).

One data set has as its target T1, EcDsbA (Escherichia coli, UniProt P0AEG4).
T1 construct: lacking the periplasmic leader signal were purified as described for KpDsbA; His6-TEV leader (inferred: same procedure as KpDsbA) (N, cleaved yes); made in house; host or cells: E. coli BL21(DE3)pLys (inferred from 'as described for KpDsbA')
Briefly: biochemical. In kind it is binding, E. coli. Particulars: ITC; range stated for KpDsbA and EcDsbA with […] and […] together; read-out: Kd (range over both peptides and both DsbAs). The protocol:
(§1) Amidation and acetylation ensure that there are no charges on the peptide termini, as these are not present in the native DsbB loop sequence. Binding affinity was measured using a MicroCal™ Auto-iTC200 from (GE Healthcare, USA) at 25 °C. The sample cell was loaded with 200 μL of 100 μM KpDsbA or EcDsbA in 25 mM HEPES, 50 mM NaCl, pH 7.4, and DMSO 0.8 %. The peptide (3 mM) diluted in the same buffer was titrated with an initial injection of 0.5 μL into DsbA, followed by 19 consecutive injections (2.0 μL) offset by 180 s, while the solution was constantly stirred (1000 rpm). Data were fitted to a single-site binding model using MicroCal™ Origin 7.0 software (Origin 7 SR4 v7.0552).

The next data set deals with KpDsbA. Briefly: ITC binding of DsbB-derived peptides to KpDsbA. Set-up: species or system K. pneumoniae. On the procedure: as §1, with “v7.0552). Experiments were conducted in triplicate and affinity and thermodynamic parameters are reported as means and standard deviations (Table 4).” for “v7.0552).”
In data set [1] the test system is insulin. To be noted: cited from earlier work.
Data set [2] is described as follows: In vitro peptide dithiol oxidation (europium fluorescence). In kind it is biochemical. Particulars: samples lacking EcDsbB, DsbA plus peptide; pH 5.5; time-resolved fluorescence. On the procedure:
A peptide ([…]) with a 1,4,7,10-tetraazacyclododecane-1,4,7,10-tetraacetic acid (DOTA) group amide-coupled to the N-terminus, and a methylcoumarin amide-coupled to the ε-amino group of the C-terminal lysine, was purchased from AnaSpec (Fremont, CA). Lyophilized peptide was re-suspended in 100 mM imidazole, pH 6, at a concentration of 2 mM. Europium trifluoromethanesulfonate (Sigma Aldrich, Australia) solution (100 mM) was added to the peptide at a molar ratio of 2:1 and incubated for 5 min at room temperature, to allow europium chelation. The peptide solution was then immediately aliquoted, flash frozen in liquid nitrogen and stored at -80°C. An increase in fluorescence occurs upon oxidation of the peptide cysteines to form a disulfide. Thus, fluorescence can be used to monitor the capacity of DsbA enzymes to catalyse dithiol oxidation.
Assays were conducted using a Synergy H1 multimode plate reader (BioTek, USA) with the excitation wavelength set to 340 nm and emission to 615 nm. A 150 μs delay before reading and 100 μs reading time were used for time-resolved fluorescence. The assay was performed in a white 384-well plate (Perkin Elmer OptiPlate-384, Part #: 6007290). The buffer consisted of 50 mM MES, 50 mM NaCl and 2 mM EDTA at pH 5.5. The reaction consisted of a 50 μL solution in each well, containing 160 nM EcDsbA, KpDsbA or SeDsbA, 1.6 μM EcDsbB (crude membrane extracts, containing ubiquinone) and 8 μM peptide substrate added last to initiate the reaction. Samples containing buffer and DsbA or buffer and peptide were used as controls. Data were measured for three replicates and are presented as mean values, with the standard error of the mean indicated by error bars.

Data set [3] concerns E. coli dsbA- null (JCB817). Briefly: Complementation swarming assay, dsbA- null strain JCB817. To be noted: pBAD33, arabinose-induced; soft M63 minimal agar, 37 °C, 3-7 h; biological triplicates.
Description: The ability of KpDsbA to rescue non-motile E. coli dsbA ^- null (JCB817) and dsbA ^-/dsbB ^- double-null (JCB818) strains was assessed in a cell-swarming assay as described previously [16]. The mature KpDsbA coding sequence was cloned into pBAD33 under an arabinose inducible promotor with the EcDsbA periplasmic signal sequence. A wild-type EcDsbA cloned into pBAD33 vector was used as a positive control. Non-motile E. coli dsbA ^- deficient (JCB817) or dsbA ^- / dsbB ^- double-mutant (JCB818) [3] cells (2x10^6) transformed with a KpDsbA or EcDsbA pBAD33 inducible vector were spotted onto the center of a soft M63 minimal agar plate containing 40 mg/mL of each amino acid (except L-cysteine). Plates were incubated at 37 °C and motility of cells monitored using a Molecular Imager® Gel Doc™ system from BIO-RAD (CA 94547, USA) after 3-7 h. Complementation experiments were repeated as biological triplicates.
The conditions of data set [4]: EcDsbA, cited from earlier work. An excerpt: The past 5 years has seen the characterization of DsbA enzymes from many other bacteria including DsbAs with varying degrees of sequence identity to EcDsbA such as Neisseria meningitidis DsbA1 (NmDsbA1, 23% identity), Pseudomonas aerugin ... || EcDsbA and SeDsbA share 86 % sequence identity and both have been characterized previously. […] Both are similarly oxidizing enzymes: the redox potentials of EcDsbA and SeDsbA are -122 and -126 mV, respectively, whereas the range for all DsbAs is -80 to -163 mV (Table 1 ). In b ... || (+ 1 further places)

Data set [5] deals with insulin. Kind of data set: Insulin disulfide reductase activity. In kind it is biochemical. Particulars: 10 μM enzyme, 0.33 mM DTT, 2 mM EDTA, 100 mM phosphate pH 7.0, 0.131 mM insulin; OD650nm turbidity; three repeats. The protocol:
Under mild reducing conditions, DsbA proteins can reduce the intermolecular disulfide bonds formed between insulin chains A and B [3]. The rate of disulfide bond reduction can be spectroscopically followed at OD650nm by an increase in turbidity resulting from production of the insoluble insulin chain B [20]. Samples were prepared in 1 cm cuvettes containing 10 μM of protein (KpDsbA, EcDsbA or EcDsbC), 0.33 mM DTT and 2 mM EDTA in 100 mM NaH2PO4 / Na2HPO4 titrated to pH 7.0. Catalysis was initiated by the addition of 0.131 mM insulin (I0516, Sigma-Aldrich, Australia) to the sample mixture. The assay was repeated three times and data were plotted showing standard deviations.

Entries after “also recorded” stand apart in the source; their conditions may differ. Like-named read-outs stand apart in the source and are kept apart here.

As to `CC(=O)N1CCC[C@H]1C(=O)N[C@@H](CO)C(=O)N1CCC[C@H]1C(=O)N[C@@H](Cc1ccccc1)C(=O)N[C@@H](CCC(N)=O)C(=O)N[C@H](C(=O)N[C@@H](CS)C(=O)N[C@@H](CC(=O)O)C(N)=O)[C@@H](C)O`, the Kd at EcDsbA is 11 to 18 µM; at KpDsbA (ITC (Auto-iTC200), cell 100 μM KpDsbA, peptide 3 mM, 25 mM HEPES, 50 mM NaCl, pH 7.4, DMSO 0.8 %, 25 °C in method, 20 °C in table footnote, single-site model, apparent Kd, mean ± SD, three independent experiments, read-out: Kd), 16.7 ± 0.6 µM; on KpDsbA (ITC, range stated for KpDsbA and EcDsbA with PSPFATCD and PSPFQTCD together, read-out: Kd (range over both peptides and both DsbAs)), 11 to 18 µM.

B1: EcDsbA: Escherichia coli DsbA (CAA56736) (protein)
chain: AQYEDGKQYTTLEKPVAGAPQVLEFFSFFCPHCYQFEEVLHISDNVKKKLPEGVKMTKYHVNFMGGDLGKDLTQAWAVAMALGVEDKVTVPLFEGVQKTQTIRSASDIRDVFINAGIKGEEYDAAWNSFVVKSLVAQQEKAAADVQLRGVPAMFVNGKYQLNPQGMDTSNMDVFVQQYADTVKYLSEKK
In the case of B1, the insulin reductase activity entry with insulin [1] is “weak disulfide reductants; also recorded: weak insulin reductase activity”. Further, in data set [2], the “dithiol oxidation signal without EcDsbB” value is given as “no increase in signal”. For the same molecule, the “restoration of motility (swarming)” value in data set [3] is “can rescue the swarming”. In addition, in data set [4] (Table 1, ref [6], [14]), the “E°’ (redox potential)” value is listed as -122 mV. In addition, the Tm oxidized in data set [4] (Table 1, ref [6], [14]) is listed as 341 K; in data set [4] (with spread, ref [7]) it was 341.7 ± 0.2 K; in data set [4] (ref [13]), 341 K. In addition, the Tm reduced in data set [4] (Table 1, ref [6], [14]) is reported as 350 K; in data set [4] (with spread, ref [7]), 350.9 ± 0.2 K; in data set [4] (ref [13]) it was 350 K. Also, the “pKa “Cys30”” value in data set [4] (Table 1 and comparison, ref [6], [14]) is recorded as 3.3. The “pKa of nucleophilic cysteine” value was 3.3 in data set [4] (introduction, ref [9]) and 3.3 in data set [4] (ref [7]). Also, the redox potential in data set [4] (ref [9]) is reported as -122 mV. In addition, the “insulin disulfide reductase activity” value in the data set with insulin [5] is reported as “weak insulin reductase activity”.
